Article PMC3716694, “Crystal structure of signal regulatory protein gamma (SIRPγ) in complex with an antibody Fab fragment” (BMC Structural Biology, 2013)

Key:
[1] = biological target: T1, extracellular region of human signal regulatory protein gamma (SIRPγ) (human, UniProt Q9P1W8-1, high-mannose N-glycans (CHO Lec3.2.8.1); in the crystal de-glycosylated with endoglycosidase F1, N-acetylglucosamine modelled at residue 240); test: AUC; sedimentation velocity of SIRPγ: FabOX117 mixtures (2:1 and 1:2), total 1 mg/ml (13.7/6.3 μM), 40 000 rpm, 20 mM Tris-HCl pH 7.5, 200 mM NaCl, 20°C; conditions: both partners purified
T1 construct: SIRPγ, human, residues 29-347 of NP_061026, three Ig-like domains d1-d3; Glycosylated in the AUC experiments, Endo F1-treated in the crystal; also called SIRPβ2

[2] = biological target: T1, extracellular region of human signal …; test: AUC; sedimentation equilibrium of SIRPγ: FabOX117 mixtures at 2:1, 1:1 and 1:2, total 1 mg/ml, 15 000, 20 000, 28 000 and 36 000 rpm, fitted to A + B ↔ AB (SEDPHAT), 20 mM Tris-HCl pH 7.5, 200 mM NaCl, 20°C; conditions: both partners purified

T1 sequence (Q9P1W8 29-347): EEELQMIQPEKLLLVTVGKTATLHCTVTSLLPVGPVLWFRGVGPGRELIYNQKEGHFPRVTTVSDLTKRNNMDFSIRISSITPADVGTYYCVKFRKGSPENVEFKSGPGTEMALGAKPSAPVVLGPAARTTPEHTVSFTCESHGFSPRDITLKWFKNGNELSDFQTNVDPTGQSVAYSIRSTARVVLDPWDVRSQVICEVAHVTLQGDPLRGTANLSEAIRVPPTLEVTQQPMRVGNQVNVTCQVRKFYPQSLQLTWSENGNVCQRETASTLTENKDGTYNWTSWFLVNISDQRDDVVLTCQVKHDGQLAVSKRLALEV

B1: Fab fragment of the anti-SIRP monoclonal antibody OX117 (Fab, V domains shown)
VH: EVKLQQSGPELVKPGASVKISCKASGYSFTSYYIHWVKQRPGQGLEWIGWVFPGSGNTKYNEKFKGKATLTADTSSSTAYMQLSSLTSEDSAVYFCARGNYDRAWFAYWGQGTLVTVSA
VL: DIVITQSPKFMSTSVGDRVSITCKASQDVSTAVAWFQQKPGQSPKLLIYSASYRYTGVPDRFTGSGSGTDFTFTISSVQAEDLAVYYCQQHYSTPWTFGGGTKLEIK
notes: Fd region (Vh and CH1 domains) of OX117, 220 residues; light chain of OX117, 214 residues; Recombinant Fab; also called FabOX117; not shown: His6, C-terminal, kept
stoichiometry N [1]: 1 | Kd [2]: 1200 nM
